Measured values from paper PMC8430995.

molecular target: Akt WT (transfected) (UniProt P31749); assay: co-immunoprecipitation (K8/K18 IP, Akt immunoblot, quantified); settings: BHK-21 cells transfected with Akt WT, K8 WT and the K18 mutant; parent: est. 1.0; read off a plot
Sequence (P31749 whole entry): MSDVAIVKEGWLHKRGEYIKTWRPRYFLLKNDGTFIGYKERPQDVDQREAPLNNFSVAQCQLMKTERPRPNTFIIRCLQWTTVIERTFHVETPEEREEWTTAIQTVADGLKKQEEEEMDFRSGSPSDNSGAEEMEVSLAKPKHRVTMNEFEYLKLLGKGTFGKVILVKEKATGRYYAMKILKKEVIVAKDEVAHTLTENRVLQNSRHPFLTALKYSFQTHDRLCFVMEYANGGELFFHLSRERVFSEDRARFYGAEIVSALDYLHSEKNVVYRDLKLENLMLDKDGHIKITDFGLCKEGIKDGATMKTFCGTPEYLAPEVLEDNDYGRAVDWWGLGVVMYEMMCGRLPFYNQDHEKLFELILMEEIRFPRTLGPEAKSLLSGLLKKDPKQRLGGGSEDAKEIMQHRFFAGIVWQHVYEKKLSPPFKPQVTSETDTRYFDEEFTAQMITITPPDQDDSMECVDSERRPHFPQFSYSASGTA

K8 WT/K18 WT (transfected) (from UniProt P05787;P05783) K18:T294M, sequence (P05787 whole entry, stated change not applied): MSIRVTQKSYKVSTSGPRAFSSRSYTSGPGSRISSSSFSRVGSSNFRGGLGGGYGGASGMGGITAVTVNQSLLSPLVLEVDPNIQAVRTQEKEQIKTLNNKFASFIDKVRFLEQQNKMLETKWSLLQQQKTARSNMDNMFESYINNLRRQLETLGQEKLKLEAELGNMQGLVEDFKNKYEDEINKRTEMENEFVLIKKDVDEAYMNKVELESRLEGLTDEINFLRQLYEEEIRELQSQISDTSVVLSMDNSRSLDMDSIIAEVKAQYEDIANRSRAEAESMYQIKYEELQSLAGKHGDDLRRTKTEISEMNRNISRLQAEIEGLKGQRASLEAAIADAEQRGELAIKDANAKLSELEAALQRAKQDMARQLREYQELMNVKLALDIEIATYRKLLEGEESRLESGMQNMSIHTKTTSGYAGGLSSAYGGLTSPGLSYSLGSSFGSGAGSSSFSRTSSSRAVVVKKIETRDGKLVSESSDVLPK
K8 WT/K18 WT (transfected) (from UniProt P05787;P05783) K18:T294M, sequence (P05783 whole entry, stated change not applied): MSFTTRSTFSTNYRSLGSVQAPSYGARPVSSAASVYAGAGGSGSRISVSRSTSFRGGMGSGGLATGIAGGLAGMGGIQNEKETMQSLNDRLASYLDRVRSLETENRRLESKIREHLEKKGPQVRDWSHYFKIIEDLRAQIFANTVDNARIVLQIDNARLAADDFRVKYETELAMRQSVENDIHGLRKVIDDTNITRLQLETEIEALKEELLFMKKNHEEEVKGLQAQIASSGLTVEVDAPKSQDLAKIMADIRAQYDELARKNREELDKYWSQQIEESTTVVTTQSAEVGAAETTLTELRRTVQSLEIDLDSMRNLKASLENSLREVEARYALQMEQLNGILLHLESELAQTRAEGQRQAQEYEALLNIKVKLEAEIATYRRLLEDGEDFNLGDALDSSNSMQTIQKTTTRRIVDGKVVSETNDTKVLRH
K8 WT/K18 WT (transfected) (from UniProt P05787;P05783) K18:I149V, sequence (P05787 whole entry, stated change not applied): as the sequence (P05787 whole entry, stated change not applied) above
K8 WT/K18 WT (transfected) (from UniProt P05787;P05783) K18:I149V, sequence (P05783 whole entry, stated change not applied): as the sequence (P05783 whole entry, stated change not applied) above
K8 WT/K18 WT (transfected) (from UniProt P05787;P05783) K8:A319S, sequence (P05787 whole entry, stated change not applied): as the sequence (P05787 whole entry, stated change not applied) above
K8 WT/K18 WT (transfected) (from UniProt P05787;P05783) K8:A319S, sequence (P05783 whole entry, stated change not applied): as the sequence (P05783 whole entry, stated change not applied) above
K8 WT/K18 WT (transfected) (from UniProt P05787;P05783) K8:R341H, sequence (P05787 whole entry, stated change not applied): as the sequence (P05787 whole entry, stated change not applied) above
K8 WT/K18 WT (transfected) (from UniProt P05787;P05783) K8:R341H, sequence (P05783 whole entry, stated change not applied): as the sequence (P05783 whole entry, stated change not applied) above
K8 WT/K18 WT (transfected) (from UniProt P05787;P05783) K8:Y54H, sequence (P05787 whole entry, stated change not applied): as the sequence (P05787 whole entry, stated change not applied) above
K8 WT/K18 WT (transfected) (from UniProt P05787;P05783) K8:Y54H, sequence (P05783 whole entry, stated change not applied): as the sequence (P05783 whole entry, stated change not applied) above
K8 WT/K18 WT (transfected) (from UniProt P05787;P05783) K8:R454C, sequence (P05787 whole entry, stated change not applied): as the sequence (P05787 whole entry, stated change not applied) above
K8 WT/K18 WT (transfected) (from UniProt P05787;P05783) K8:R454C, sequence (P05783 whole entry, stated change not applied): as the sequence (P05783 whole entry, stated change not applied) above
K8 WT/K18 WT (transfected) (from UniProt P05787;P05783) K18:Q284R, sequence (P05787 whole entry, stated change not applied): as the sequence (P05787 whole entry, stated change not applied) above
K8 WT/K18 WT (transfected) (from UniProt P05787;P05783) K18:Q284R, sequence (P05783 whole entry, stated change not applied): as the sequence (P05783 whole entry, stated change not applied) above

Substance	ratio to parent
K8 WT/K18 WT (transfected) (from UniProt P05787;P05783) K18:T294M	1.6
K8 WT/K18 WT (transfected) (from UniProt P05787;P05783) K18:I149V	1.1
K8 WT/K18 WT (transfected) (from UniProt P05787;P05783) K18:Q284R	1.3

same assay, conditions: BHK-21 cells transfected with Akt WT, K18 WT and the K8 mutant; parent: est. 1.0; read off a plot

Substance	ratio to parent
K8 WT/K18 WT (transfected) (from UniProt P05787;P05783) K8:Y54H	1.1
K8 WT/K18 WT (transfected) (from UniProt P05787;P05783) K8:R341H	0.92
K8 WT/K18 WT (transfected) (from UniProt P05787;P05783) K8:R454C	1.1
K8 WT/K18 WT (transfected) (from UniProt P05787;P05783) K8:A319S	0.93
